Source: article PMC7505815, “Estrogen receptor alpha (ERα)–mediated coregulator binding and gene expression discriminates the toxic ERα agonist diethylstilbestrol (DES) from the endogenous ERα agonist 17β-estradiol (E2)” (Cell Biology and Toxicology, 2020)

Target: T1, Polyhistidine (His) tagged ERα ligand binding domain (amino acids 302–552) (UniProt P03372 302-552)
T1 construct: Detected on the array by a penta-His Alexa Fluor 488 antibody; Always tested with E2, DES or solvent (2% DMSO); also called ERα-LBD; source: partly purified from Escherichia coli (Qiagen)
T1 sequence (looked up): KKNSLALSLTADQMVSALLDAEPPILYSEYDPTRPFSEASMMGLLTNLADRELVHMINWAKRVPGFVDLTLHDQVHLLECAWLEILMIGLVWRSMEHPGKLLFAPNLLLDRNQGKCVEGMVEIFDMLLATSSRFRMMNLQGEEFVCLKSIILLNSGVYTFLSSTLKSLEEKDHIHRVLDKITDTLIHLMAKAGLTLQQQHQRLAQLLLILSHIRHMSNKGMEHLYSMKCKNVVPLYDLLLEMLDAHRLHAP
Assay: peptide or protein array; MARCoNI, PamChip peptide microarray: coregulator motif peptides immobilised; His-ERα-LBD 10 nM (partly purified) in solution with E2 (10^-12 to 10^-5 M), detected with penta-His Alexa Fluor 488 antibody 25 nM; 20 °C; 20 mM Tris-HCl pH 7.5, 500 mM NaCl, 0.2% BSA, 0.05% Tween 20, 2% DMSO
Conditions: both partners purified

B1: TRRAP_3535_3557_C3535S/C3555S (peptide, UniProt Q9Y4A5 3535-3557, looked up)
peptide: SLTESRREERVLQLLRLLNPSLE
notes: Immobilised on the PamChip; also called TRRAP_3535_3557_C3535S/C3535S; source: bought: PamChip peptide microarray, PamGene International BV
Question: Does B1 bind?
Answer: binds
